One assay deals with BAEC. Nature of the assay: GFP co-transfection killing assay, ASK1-induced EC death. It is filed as cell-based, Bovine. The note with it: for inhibitory effect on ASK1-induced apoptosis under TNF treatment: TNF 10 ng/ml. The procedure: Trx inhibits ASK1-induced JNK activation and caspase 3 activity. BAEC were co-transfected with ASK1 and Trx constructs in 1:1 ratio as indicated: control vector alone (Ctrl), ASK1 with VC, Trx-WT, Trx-CS, Trx-C32S or Trx-C35S. 24 h post-transfection, cell lysates were used to examine JNK and caspase 3 activity. […] JNK activity was measured by an in vitro kinase assay GST-c-Jun as a substrate. Trx expression was determined by Western blot anti-Flag. […] Caspase 3 activity was measured by Sigma's Caspase 3 Fluorometric Assay Kit in the absence or presence of caspase 3 inhibitor Ac-DEVD-CHO. Assay was performed as duplicates. Caspase 3 activities were normalized with the Ctrl group (as zero). Data are presented from mean of two independent experiments. […] 6-well BAEC were co-transfected with a GFP expression construct and ASK1/Trx constructs as indicated (1 μg GFP, 1 μg ASK1, 1 μg Trx, total DNA was kept to 3 μg by adding VC): control vector alone (Ctrl), ASK1 with VC, Trx-WT, Trx-CS, Trx-C32S or Trx-C35S. Cells were cultured in the presence or absence of TNF (10 ng/ml). 48 h after transfection, GFP-positive cells were counted as survival cells. The survival rate is shown (Ctrl group as 100%). Data are presented from mean of four independent experiments. […] BAEC were transfetced as in FIG. 6C. 6-well BAEC were transfetced with GFP (1 μg) and Trx -expressing construct (1 μg each) as indicated. 24 h after transfection, cells were either left untreated or treated with TNF (10 ng/ml) plus CHX (10 μg/ml) for 24 h. GFP-positive cells were counted as survival cells. […] Data are presented from mean of four independent experiments.
Quantitation of cell killing: Cell killing assay was performed as described previously with a modification (Slowik M R et al. Evidence that tumor necrosis factor triggers apoptosis in human endothelial cells by interleukin-1-converting enzyme-like protease- dependent and -independent pathways. Lab Invest. 77:257-67 (1997)). EC were transfected with a combination of GFP reporter plasmid and the control vector or experimental expression plasmids for ASK1 and Trx at 1:1 ratio as indicated. GFP-positive cells were visualized under a fluorescence microscope and counted as number of survival cells.
ASK1-induced EC death was measured by a GFP co-transfection killing assay as previously described with minor modifications (Slowik M R Evidence that tumor necrosis factor triggers apoptosis in human endothelial cells by interleukin-1-converting enzyme-like protease- dependent and -independent pathways. Lab Invest. 77:257-67 (1997)). Overexpression of ASK1 in EC (BAEC or HUVEC) induced 60% cell death at 48 h post-transfection, i.e., 40% of GFP-positive (survival) EC compared to the control cells (Ctrl as 100% survival, FIG. 6C).

The test system of another assay is ASK1. Nature of the assay: Trx-induced ASK1 ubiquitination and degradation in transfected BAEC (Western blot, IP/anti-Ub). It is filed as cell-based, Bovine. The note with it: for ASK1 poly-ubiquitination / endogenous ASK1 protein level: BAEC transfected with Trx construct vs control vector; for endogenous ASK1 protein level: Western blot anti-ASK1. As to the method: Transfection Transfection of EC was performed by Lipofectamine2000 according to manufacturer's protocol (Gibco). Cells were cultured at 90% confluence in 6-well plates and were transfected with total 4 μg plasmid constructs as indicated. Cells were harvested at 36-48 h post-transfection and cell lysates were used for protein assays.
Immunoprecipitation and immunoblotting EC after various treatments were washed twice with cold PBS and lysed in 1.5 ml of cold lysis buffer (50 mM Tris-HC, pH 7.6, 150 mM NaCl, 0.1% Triton X-100, 0.75% Brij 96, 10 μg/ml aprotinin, 10 μg/ml leupeptin, 2 mM PMSF, 1 mM EDTA) for 20 min on ice. Protein concentrations were determined with a Bio-Rad kit. For immunoprecipitation to analyze protein interaction in vivo, 400 μg of cell lysate supematant were incubated with 5 μg of the first protein-specific antiserum (e.g. anti-Trx from Medical & Biological Laboratory) for 2 h with 50 μl of GammaBind plus Sepharose. Immune complexes were collected after each immunoprecipitation by centrifugation at 14,000× g for 10 min followed by 4 washes with lysis buffer. The immune complexes were subjected to Western blot with the second protein (e.g., ASK1)-specific antibody (Santa Cruz Biotech, Santa Cruz, Calif.). The chemiluminescence was detected using an ECL kit according to the instructions of the manufacturer (Amersham Life Science, Arlington Heights, Ill.). For Flag-tagged and HA-tagged proteins, anti-Flag M2 antibody (Sigma) and anti-HA antibody (Roche Diagnostics) were used, respectively.
Trx induces ASK1 ubiquitination and degradation in EC. To determine if Trx affects ASK1 protein stability, BAEC were transfected with Trx-expressing plasmid or a control vector (VC) with Lipofactamine2000. Transfection efficiency was determined by transfection of a GFP construct under a fluorescence microscope and usually reached 90% in BAEC and 10% in HUVEC. The high transfection efficiency in BAEC allowed us to examine effects of transgene on endogenous ASK1. Endogenous ASK1 was determined by Western blot with anti-ASK1. […] The high molecular bands are usually ubiquitination of target proteins for degradation (Laney J D et al. Substrate targeting in the ubiquitin system. Cell 97:427-30 (1999)). […] The ubiquitination of ASK1 was also confirmed by co-expression of ASK1 and HA-tag Ub (Treier et al. Ubiquitin-dependent c-Jun degradation in vivo is mediated by the delta domain. Cell 78:787-98 (1994)).
(Immunoblotting shows a protein as a band on a membrane.)

Changes are numbered by the printed parent chain. Names and notes keep the numbering of the source.

B1: thioredoxin (protein)
chain: MVKQIESKTAFQEALDAAGDKLVVVDFSATWCGPCKMIKPFFHSLSEKYSNVIFLEVDVDDCQDVASECEVKCMPTFQFFKKGQKVGEFSGANKEKLEATINELV
modifications: Flag tag or GST fusion
notes: Flag-tagged or GST fusion
On to B1, for which, in the assay with BAEC, the ASK1-ΔN-induced apoptosis result is given as “did not inhibit” and the “inhibitory effect on ASK1-induced apoptosis under TNF treatment” value (from here on “inhibitory effect”) is given as “diminished the inhibitory effect”. In addition, in the assay on ASK1 (BAEC co-transfected with ASK1-ΔN (lacks N-terminal Trx-binding domain)), the “ubiquitination and degradation of ASK1-ΔN” value was “did not induce ubiquitination and degradation”. Further, in the assay with ASK1, the ASK1 poly-ubiquitination entry is “increased ASK1 poly-ubiquitination” and the “endogenous ASK1 protein level” value is recorded as “decrease in ASK1 protein”. Further, in the assay with ASK1 (listed as Trx), the “endogenous ASK1 protein level” value is reported as “decreased protein level of ASK1” and the ASK1 poly-ubiquitination result is on record as “significantly increased ASK1 ubiquitination”.

B2: Trx-C35S: C35S single mutant of Trx at the catalytic site, SEQ ID NO:3 (protein)
chain: B1 chain with C35S
Take B2: the “inhibitory effect” value in the assay with BAEC was “retained their inhibitory effects”. Moreover, in the assay with ASK1, the ASK1 poly-ubiquitination entry is listed as “increased ASK1 poly-ubiquitination” and the “endogenous ASK1 protein level” value is reported as “decrease in ASK1 protein”.

B3: Trx-C32S: C32S single mutant of Trx at the catalytic site, SEQ ID NO:2 (protein)
chain: B1 chain with C32S
On to B3, for which the “inhibitory effect” value in the assay with BAEC is listed as “retained their inhibitory effects”. Moreover, in the assay with ASK1, the ASK1 poly-ubiquitination result was “increased ASK1 poly-ubiquitination” and the “endogenous ASK1 protein level” value was “decrease in ASK1 protein”.

These data come from US20060148057A1, “Thioredoxin mutants and uses thereof” (priority 2002, published 2006).
